T1: HLA-DRB1*1301 (human)
T1 chain 1: not shown
T1 chain 2: not shown


Assays:
[1] = biological target: HLA-DRB1*0701 (human); test: competition binding; settings: modification not given
[2] = biological target: HLA-DRB1*1501 (human); test: competition binding; settings: modification not given
[3] = biological target: HLA-DRB1*1301 (human); test: competition binding; settings: modification not given
[4] = biological target: HLA-DRB1*1101 (human); test: competition binding; settings: modification not given
[5] = biological target: HLA-DRB1*0401 (human); test: competition binding; settings: modification not given
[6] = biological target: HLA-DRB4*0101 (human); test: competition binding; settings: modification not given
[7] = biological target: HLA-DRB3*0101 (human); test: competition binding; settings: modification not given
[8] = biological target: HLA-DRB1*0301 (human); test: competition binding; settings: modification not given
[9] = biological target: HLA-DRB1*0101 (human); test: competition binding; settings: modification not given
[10] = biological target: HLA-DRB5*0101 (human); test: competition binding; settings: modification not given
[11] = biological target: HLA-DRB4*0101 (human); test: competition; settings: modification not given
[12] = biological target: T1, HLA-DRB1*1301 (human); test: competition assay on purified, immobilised HLA-DR against the biotinylated reference peptide, pH 4.5

Binder	IC50 [1] [µM]	IC50 [2] [µM]	IC50 [3] [µM]	IC50 [4] [µM]	IC50 [5] [µM]	IC50 [6] [µM]	IC50 [7] [µM]	IC50 [8] [µM]	IC50 [9] [µM]	IC50 [10] [µM]	IC50 [11] [µM]	IC50 [12] [µM]
HAVSDHEATLRCWAL [p39]	–	–	–	–	–	–	–	–	–	–	0.008	–
PEYWDGETRKVKAHS [p11]	62.9	> 100	> 100	0.418	63.2	> 100	> 100	> 100	4.95	24.4	–	–
SQRMEPRAPWIEQEGP [p9]	83.7	33.2	60	15.5	> 100	> 100	> 100	> 100	10.8	67.1	–	–
VDLGTLRGYYNQSEA [p14*]	> 100	0.082	> 100	1.55	8.83	> 100	> 100	> 100	0.209	11	–	–
HSMRYFFTSVSRPGR [p1*]	0.038	0.509	0.365	0.002	0.013	0.193	> 100	7.35	0.003	0.004	–	–
VRFDSDAASQRMEPR [p8*]	4.65	> 100	> 100	58.3	3.39	> 100	2.68	1.4	14	3.58	–	–
KDYIALKEDLRSWTA [p25]	2.96	0.125	2.74	0.042	0.325	27.4	85.5	1.63	0.01	0.052	–	–

More lines, now with the values ahead:

IC50 [1] [µM]	IC50 [2] [µM]	IC50 [3] [µM]	IC50 [4] [µM]	IC50 [5] [µM]	IC50 [6] [µM]	IC50 [7] [µM]	IC50 [8] [µM]	IC50 [9] [µM]	IC50 [10] [µM]	IC50 [11] [µM]	IC50 [12] [µM]	Binder
0.045	0.028	> 100	40.6	2	4.52	3.97	5.23	0.026	0.812	–	–	RCWALSFYPAEITLT [p40]
–	–	–	–	–	–	–	–	–	–	–	0.131	TERVRLVTRHIYNREE (modifications not checked) [reference peptide B1 21-36]
> 100	18.8	> 100	6	> 100	4.58	30	> 100	1.34	4.69	–	–	AEITLTWQRDGEDQT [p42]

— US20110038881A1, “PROGNOSTIC ASSAY FOR DETERMINING T CELL RESPONSE TO HLA ANTIGENS AND USE THEREOF IN FIELD OF TISSUE TRANSPLANTATION” (priority 2007, published 2011)
